Source: US20200270325A1 (Merck Sharp & Dohme, published 2020)
Numbered stars: 1 amine (or outer) side, 2 acyl side, 3 side chain; on linkers, the order of the positions; unused ones are H or OH. Square brackets hold non-standard residues; d marks the D form. Side chains are listed from the residue outwards. Ends that are not written are not given here. * marks the point of attachment. Phe(4-CH2NH2) = NCc1ccc(C[C@H](N)C(=O)O)cc1; C18 diacid = O=C(O)CCCCCCCCCCCCCCCCC(=O)*; γGlu = O=C(O)[C@H](CCC(=O)[*:2])N[*:1]; Met(O2) = CS(=O)(=O)CC[C@H](N)C(=O)O; αMeD = C[C@](N)(CC(=O)O)C(=O)O; Nle = CCCC[C@H](N)C(=O)O; AEEA = NCCOCCOCC(=O)O; Aib = CC(C)(N)C(=O)O

What was measured:
[1] = molecular target: human GLP-1 receptor (GLP1R) (human, UniProt P43220 24-463); assay: cell-based or functional assay
[2] = molecular target: human Glucagon receptor (GCGR) (human, UniProt P47871 26-477); assay: cell-based or functional assay
human Glucagon receptor (GCGR), sequence (P47871 26-477): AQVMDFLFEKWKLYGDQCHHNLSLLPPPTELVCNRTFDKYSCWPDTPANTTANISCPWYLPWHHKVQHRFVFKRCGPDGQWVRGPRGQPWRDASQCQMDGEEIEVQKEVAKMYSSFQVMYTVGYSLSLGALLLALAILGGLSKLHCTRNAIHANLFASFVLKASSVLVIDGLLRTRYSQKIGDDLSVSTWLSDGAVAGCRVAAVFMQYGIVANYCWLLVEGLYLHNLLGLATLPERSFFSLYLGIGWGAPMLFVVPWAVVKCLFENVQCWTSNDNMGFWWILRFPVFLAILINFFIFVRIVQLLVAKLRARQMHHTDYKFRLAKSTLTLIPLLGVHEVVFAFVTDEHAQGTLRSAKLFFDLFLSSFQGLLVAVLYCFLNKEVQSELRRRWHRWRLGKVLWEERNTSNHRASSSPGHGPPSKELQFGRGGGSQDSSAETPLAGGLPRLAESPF

B1: TP700 (peptide)
peptide: H[Aib]QGTFTSDYSEYLDKRAAQDFVK([AEEA-AEEA-γGlu-C18 diacid])WL[Met(O2)]DT-NH2
modifications: N-terminus assumed
SMILES: CC(C)C[C@H](NC(=O)[C@H](Cc1ccc(O)cc1)NC(=O)[C@H](CCC(=O)O)NC(=O)[C@H](CO)NC(=O)[C@H](Cc1ccc(O)cc1)NC(=O)[C@H](CC(=O)O)NC(=O)[C@H](CO)NC(=O)[C@@H](NC(=O)[C@H](Cc1ccccc1)NC(=O)[C@@H](NC(=O)CNC(=O)[C@H](CCC(N)=O)NC(=O)C(C)(C)NC(=O)[C@@H](N)Cc1c[nH]cn1)[C@@H](C)O)[C@@H](C)O)C(=O)N[C@@H](CC(=O)O)C(=O)N[C@@H](CCCCN)C(=O)N[C@@H](CCCNC(=N)N)C(=O)N[C@@H](C)C(=O)N[C@@H](C)C(=O)N[C@@H](CCC(N)=O)C(=O)N[C@@H](CC(=O)O)C(=O)N[C@@H](Cc1ccccc1)C(=O)N[C@H](C(=O)N[C@@H](CCCCNC(=O)COCCOCCNC(=O)COCCOCCNC(=O)CC[C@H](NC(=O)CCCCCCCCCCCCCCCCC(=O)O)C(=O)O)C(=O)N[C@@H](Cc1c[nH]c2ccccc12)C(=O)N[C@@H](CC(C)C)C(=O)N[C@@H](CCS(C)(=O)=O)C(=O)N[C@@H](CC(=O)O)C(=O)N[C@H](C(N)=O)[C@@H](C)O)C(C)C
[1]
  GLP1R EC50 human: 0.35 nM
[2]
  GCGR EC50 human: > 4.9 nM

B2: TP705 (peptide)
peptide: H[Aib]QGTFTSDYSKYLDARAAK([AEEA-AEEA-γGlu-C18 diacid])DFVEWL[Met(O2)]KT-NH2
modifications: N-terminus assumed
SMILES: CC(C)C[C@H](NC(=O)[C@H](Cc1ccc(O)cc1)NC(=O)[C@H](CCCCN)NC(=O)[C@H](CO)NC(=O)[C@H](Cc1ccc(O)cc1)NC(=O)[C@H](CC(=O)O)NC(=O)[C@H](CO)NC(=O)[C@@H](NC(=O)[C@H](Cc1ccccc1)NC(=O)[C@@H](NC(=O)CNC(=O)[C@H](CCC(N)=O)NC(=O)C(C)(C)NC(=O)[C@@H](N)Cc1c[nH]cn1)[C@@H](C)O)[C@@H](C)O)C(=O)N[C@@H](CC(=O)O)C(=O)N[C@@H](C)C(=O)N[C@@H](CCCNC(=N)N)C(=O)N[C@@H](C)C(=O)N[C@@H](C)C(=O)N[C@@H](CCCCNC(=O)COCCOCCNC(=O)COCCOCCNC(=O)CC[C@H](NC(=O)CCCCCCCCCCCCCCCCC(=O)O)C(=O)O)C(=O)N[C@@H](CC(=O)O)C(=O)N[C@@H](Cc1ccccc1)C(=O)N[C@H](C(=O)N[C@@H](CCC(=O)O)C(=O)N[C@@H](Cc1c[nH]c2ccccc12)C(=O)N[C@@H](CC(C)C)C(=O)N[C@@H](CCS(C)(=O)=O)C(=O)N[C@@H](CCCCN)C(=O)N[C@H](C(N)=O)[C@@H](C)O)C(C)C
[1]
  GLP1R EC50 human: 0.41 nM
[2]
  GCGR EC50 human: 1.48 nM

B3: TP702 (peptide)
peptide: H[Aib]QGTFTSDYSKYLDARAAQEFVK([AEEA-AEEA-γGlu-C18 diacid])WL[Met(O2)]DT-NH2
modifications: N-terminus assumed
SMILES: CC(C)C[C@H](NC(=O)[C@H](Cc1ccc(O)cc1)NC(=O)[C@H](CCCCN)NC(=O)[C@H](CO)NC(=O)[C@H](Cc1ccc(O)cc1)NC(=O)[C@H](CC(=O)O)NC(=O)[C@H](CO)NC(=O)[C@@H](NC(=O)[C@H](Cc1ccccc1)NC(=O)[C@@H](NC(=O)CNC(=O)[C@H](CCC(N)=O)NC(=O)C(C)(C)NC(=O)[C@@H](N)Cc1c[nH]cn1)[C@@H](C)O)[C@@H](C)O)C(=O)N[C@@H](CC(=O)O)C(=O)N[C@@H](C)C(=O)N[C@@H](CCCNC(=N)N)C(=O)N[C@@H](C)C(=O)N[C@@H](C)C(=O)N[C@@H](CCC(N)=O)C(=O)N[C@@H](CCC(=O)O)C(=O)N[C@@H](Cc1ccccc1)C(=O)N[C@H](C(=O)N[C@@H](CCCCNC(=O)COCCOCCNC(=O)COCCOCCNC(=O)CC[C@H](NC(=O)CCCCCCCCCCCCCCCCC(=O)O)C(=O)O)C(=O)N[C@@H](Cc1c[nH]c2ccccc12)C(=O)N[C@@H](CC(C)C)C(=O)N[C@@H](CCS(C)(=O)=O)C(=O)N[C@@H](CC(=O)O)C(=O)N[C@H](C(N)=O)[C@@H](C)O)C(C)C
[1]
  GLP1R EC50 human: 0.27 nM
[2]
  GCGR EC50 human: 0.35 nM

B4: TP699 (peptide)
peptide: H[Aib]QGTFTSEYSKKLDARAAQDFVK([AEEA-AEEA-γGlu-C18 diacid])WL[Met(O2)]DT-NH2
modifications: N-terminus assumed
SMILES: CC(C)C[C@H](NC(=O)[C@H](CCCCN)NC(=O)[C@H](CCCCN)NC(=O)[C@H](CO)NC(=O)[C@H](Cc1ccc(O)cc1)NC(=O)[C@H](CCC(=O)O)NC(=O)[C@H](CO)NC(=O)[C@@H](NC(=O)[C@H](Cc1ccccc1)NC(=O)[C@@H](NC(=O)CNC(=O)[C@H](CCC(N)=O)NC(=O)C(C)(C)NC(=O)[C@@H](N)Cc1c[nH]cn1)[C@@H](C)O)[C@@H](C)O)C(=O)N[C@@H](CC(=O)O)C(=O)N[C@@H](C)C(=O)N[C@@H](CCCNC(=N)N)C(=O)N[C@@H](C)C(=O)N[C@@H](C)C(=O)N[C@@H](CCC(N)=O)C(=O)N[C@@H](CC(=O)O)C(=O)N[C@@H](Cc1ccccc1)C(=O)N[C@H](C(=O)N[C@@H](CCCCNC(=O)COCCOCCNC(=O)COCCOCCNC(=O)CC[C@H](NC(=O)CCCCCCCCCCCCCCCCC(=O)O)C(=O)O)C(=O)N[C@@H](Cc1c[nH]c2ccccc12)C(=O)N[C@@H](CC(C)C)C(=O)N[C@@H](CCS(C)(=O)=O)C(=O)N[C@@H](CC(=O)O)C(=O)N[C@H](C(N)=O)[C@@H](C)O)C(C)C
[1]
  GLP1R EC50 human: > 19.8 nM
[2]
  GCGR EC50 human: > 19.8 nM

## H[Aib]QGTFTSDYSKYLDARAA[Nle]([1,2,3‑triazole‑5-AEEA-AEEA-γGlu-C18 diacid])DFVQWL[Met(O2)]DT-NH2 [TP712]
[1]
  GLP1R EC50 human: 0.45 nM
[2]
  GCGR EC50 human: 0.25 nM

B5: TP703 (peptide)
peptide: H[Aib]QGTFTSEYSKKLDARAAK([AEEA-AEEA-γGlu-C18 diacid])DFVQWL[Met(O2)]DT-NH2
modifications: N-terminus assumed
SMILES: CC(C)C[C@H](NC(=O)[C@H](CCCCN)NC(=O)[C@H](CCCCN)NC(=O)[C@H](CO)NC(=O)[C@H](Cc1ccc(O)cc1)NC(=O)[C@H](CCC(=O)O)NC(=O)[C@H](CO)NC(=O)[C@@H](NC(=O)[C@H](Cc1ccccc1)NC(=O)[C@@H](NC(=O)CNC(=O)[C@H](CCC(N)=O)NC(=O)C(C)(C)NC(=O)[C@@H](N)Cc1c[nH]cn1)[C@@H](C)O)[C@@H](C)O)C(=O)N[C@@H](CC(=O)O)C(=O)N[C@@H](C)C(=O)N[C@@H](CCCNC(=N)N)C(=O)N[C@@H](C)C(=O)N[C@@H](C)C(=O)N[C@@H](CCCCNC(=O)COCCOCCNC(=O)COCCOCCNC(=O)CC[C@H](NC(=O)CCCCCCCCCCCCCCCCC(=O)O)C(=O)O)C(=O)N[C@@H](CC(=O)O)C(=O)N[C@@H](Cc1ccccc1)C(=O)N[C@H](C(=O)N[C@@H](CCC(N)=O)C(=O)N[C@@H](Cc1c[nH]c2ccccc12)C(=O)N[C@@H](CC(C)C)C(=O)N[C@@H](CCS(C)(=O)=O)C(=O)N[C@@H](CC(=O)O)C(=O)N[C@H](C(N)=O)[C@@H](C)O)C(C)C
[1]
  GLP1R EC50 human: > 19.8 nM
[2]
  GCGR EC50 human: > 19.8 nM

B6: TP701 (peptide)
peptide: H[Aib]QGTFTSDYSKYLDERAAKDFVK([AEEA-AEEA-γGlu-C18 diacid])WL[Met(O2)]DT-NH2
modifications: N-terminus assumed
SMILES: CC(C)C[C@H](NC(=O)[C@H](Cc1ccc(O)cc1)NC(=O)[C@H](CCCCN)NC(=O)[C@H](CO)NC(=O)[C@H](Cc1ccc(O)cc1)NC(=O)[C@H](CC(=O)O)NC(=O)[C@H](CO)NC(=O)[C@@H](NC(=O)[C@H](Cc1ccccc1)NC(=O)[C@@H](NC(=O)CNC(=O)[C@H](CCC(N)=O)NC(=O)C(C)(C)NC(=O)[C@@H](N)Cc1c[nH]cn1)[C@@H](C)O)[C@@H](C)O)C(=O)N[C@@H](CC(=O)O)C(=O)N[C@@H](CCC(=O)O)C(=O)N[C@@H](CCCNC(=N)N)C(=O)N[C@@H](C)C(=O)N[C@@H](C)C(=O)N[C@@H](CCCCN)C(=O)N[C@@H](CC(=O)O)C(=O)N[C@@H](Cc1ccccc1)C(=O)N[C@H](C(=O)N[C@@H](CCCCNC(=O)COCCOCCNC(=O)COCCOCCNC(=O)CC[C@H](NC(=O)CCCCCCCCCCCCCCCCC(=O)O)C(=O)O)C(=O)N[C@@H](Cc1c[nH]c2ccccc12)C(=O)N[C@@H](CC(C)C)C(=O)N[C@@H](CCS(C)(=O)=O)C(=O)N[C@@H](CC(=O)O)C(=O)N[C@H](C(N)=O)[C@@H](C)O)C(C)C
[1]
  GLP1R EC50 human: 0.18 nM
[2]
  GCGR EC50 human: > 4.9 nM

B7: TP713 (peptide)
peptide: H[Aib]QGTFTSDYSKYLDARAAK([AEEA-AEEA-γGlu-C18 diacid])EFVQWL[Met(O2)][αMeD]
modifications: not fully specified (C-terminus); printed as HUQGTFTSDYSKYLDARAAK(PEG2PEG2γEC18-OH)EFVQWL2αMDT-NH2
[1]
  GLP1R EC50 human: 0.71 nM
[2]
  GCGR EC50 human: 1.52 nM

## H[Aib]QGTFTSDYSKYLDARAAQ[Phe(4-CH2NH2)]([AEEA-AEEA-γGlu-C20‑OH])FVQWLLDT-NH2 [TP585]
[1]
  GLP1R EC50 human: 0.566 nM
[2]
  GCGR EC50 human: 1.13 nM

B8: TP704 (peptide)
peptide: H[Aib]QGTFTSDYSKYLDARAAK([AEEA-AEEA-γGlu-C18 diacid])EFVQWL[Met(O2)]DT-NH2
modifications: N-terminus assumed
SMILES: CC(C)C[C@H](NC(=O)[C@H](Cc1ccc(O)cc1)NC(=O)[C@H](CCCCN)NC(=O)[C@H](CO)NC(=O)[C@H](Cc1ccc(O)cc1)NC(=O)[C@H](CC(=O)O)NC(=O)[C@H](CO)NC(=O)[C@@H](NC(=O)[C@H](Cc1ccccc1)NC(=O)[C@@H](NC(=O)CNC(=O)[C@H](CCC(N)=O)NC(=O)C(C)(C)NC(=O)[C@@H](N)Cc1c[nH]cn1)[C@@H](C)O)[C@@H](C)O)C(=O)N[C@@H](CC(=O)O)C(=O)N[C@@H](C)C(=O)N[C@@H](CCCNC(=N)N)C(=O)N[C@@H](C)C(=O)N[C@@H](C)C(=O)N[C@@H](CCCCNC(=O)COCCOCCNC(=O)COCCOCCNC(=O)CC[C@H](NC(=O)CCCCCCCCCCCCCCCCC(=O)O)C(=O)O)C(=O)N[C@@H](CCC(=O)O)C(=O)N[C@@H](Cc1ccccc1)C(=O)N[C@H](C(=O)N[C@@H](CCC(N)=O)C(=O)N[C@@H](Cc1c[nH]c2ccccc12)C(=O)N[C@@H](CC(C)C)C(=O)N[C@@H](CCS(C)(=O)=O)C(=O)N[C@@H](CC(=O)O)C(=O)N[C@H](C(N)=O)[C@@H](C)O)C(C)C
[1]
  GLP1R EC50 human: 0.37 nM
[2]
  GCGR EC50 human: 0.27 nM
